From patent US6458590 (US Dept. of Health and Human Services, dated 2002)
One block for each binder: values may come before it.

How the values were obtained:
[1] = target: T1, αvβ3 integrin on human coronary artery smooth muscle cells (CASMCs) (human, UniProt P06756 31-1048; P05106 27-788); assay: 125I-OPN binding to sub-confluent CASMCs, displaced by unlabeled OPN, 37 °C 3 h; Scatchard analysis (LIGAND program)
T1 construct: whole, on cells; Endogenous receptor on sub-confluent cultured human CASMCs (Clonetics); It was identified as the ~300 kD crosslinked band by immunoprecipitation with an αvβ3 integrin antibody; also called approximately 300 kD cell surface protein on CASMCs
Description: The radioactivity was measured by gamma counter and the specific binding was calculated by subtracting the non-specific binding from the total binding.

[2] = target: T1, αvβ3 integrin on human coronary artery …; assay: competition with 125I-OPN in affinity crosslinking on CASMCs; GRGDS at 1 µM
Description: After washing, the cells were incubated with 0.20 mM DSS in 1 ml HBSS, pH 7.6 at 37° C. for 30 min. The cells were scraped, collected by centrifugation and lysed in 40 µl of 1% Triton X-100 solution containing 1 mM PMSF, 20 µg/ml leupeptin and 2 mM EDTA.

T1 sequence (P06756 31-1048, chain 1 of 2): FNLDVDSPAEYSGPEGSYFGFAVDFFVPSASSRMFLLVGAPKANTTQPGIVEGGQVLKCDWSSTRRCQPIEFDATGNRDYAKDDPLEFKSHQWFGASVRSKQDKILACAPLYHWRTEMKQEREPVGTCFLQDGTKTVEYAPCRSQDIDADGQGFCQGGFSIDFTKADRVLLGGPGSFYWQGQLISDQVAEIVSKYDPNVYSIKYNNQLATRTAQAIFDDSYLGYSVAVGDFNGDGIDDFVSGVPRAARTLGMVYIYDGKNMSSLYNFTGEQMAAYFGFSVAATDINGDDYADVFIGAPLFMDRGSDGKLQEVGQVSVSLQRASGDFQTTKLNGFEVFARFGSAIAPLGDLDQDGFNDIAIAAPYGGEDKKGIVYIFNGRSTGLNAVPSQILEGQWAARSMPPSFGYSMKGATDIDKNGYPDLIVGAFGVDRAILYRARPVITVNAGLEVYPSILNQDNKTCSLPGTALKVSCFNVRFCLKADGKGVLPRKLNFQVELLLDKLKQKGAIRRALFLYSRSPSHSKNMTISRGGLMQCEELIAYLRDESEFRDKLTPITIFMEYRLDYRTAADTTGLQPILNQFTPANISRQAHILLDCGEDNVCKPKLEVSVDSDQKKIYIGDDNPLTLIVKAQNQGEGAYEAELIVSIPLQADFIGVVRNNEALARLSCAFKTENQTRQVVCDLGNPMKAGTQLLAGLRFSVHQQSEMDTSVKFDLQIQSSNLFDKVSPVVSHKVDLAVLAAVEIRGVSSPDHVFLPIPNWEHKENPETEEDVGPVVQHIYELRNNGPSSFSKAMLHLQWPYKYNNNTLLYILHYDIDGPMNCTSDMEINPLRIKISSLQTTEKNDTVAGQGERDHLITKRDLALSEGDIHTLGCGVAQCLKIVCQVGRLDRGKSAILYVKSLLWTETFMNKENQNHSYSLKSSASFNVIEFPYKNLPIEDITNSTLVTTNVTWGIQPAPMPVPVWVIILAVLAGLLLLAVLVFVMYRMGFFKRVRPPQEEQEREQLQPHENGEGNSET
T1 sequence (P05106 27-788, chain 2 of 2): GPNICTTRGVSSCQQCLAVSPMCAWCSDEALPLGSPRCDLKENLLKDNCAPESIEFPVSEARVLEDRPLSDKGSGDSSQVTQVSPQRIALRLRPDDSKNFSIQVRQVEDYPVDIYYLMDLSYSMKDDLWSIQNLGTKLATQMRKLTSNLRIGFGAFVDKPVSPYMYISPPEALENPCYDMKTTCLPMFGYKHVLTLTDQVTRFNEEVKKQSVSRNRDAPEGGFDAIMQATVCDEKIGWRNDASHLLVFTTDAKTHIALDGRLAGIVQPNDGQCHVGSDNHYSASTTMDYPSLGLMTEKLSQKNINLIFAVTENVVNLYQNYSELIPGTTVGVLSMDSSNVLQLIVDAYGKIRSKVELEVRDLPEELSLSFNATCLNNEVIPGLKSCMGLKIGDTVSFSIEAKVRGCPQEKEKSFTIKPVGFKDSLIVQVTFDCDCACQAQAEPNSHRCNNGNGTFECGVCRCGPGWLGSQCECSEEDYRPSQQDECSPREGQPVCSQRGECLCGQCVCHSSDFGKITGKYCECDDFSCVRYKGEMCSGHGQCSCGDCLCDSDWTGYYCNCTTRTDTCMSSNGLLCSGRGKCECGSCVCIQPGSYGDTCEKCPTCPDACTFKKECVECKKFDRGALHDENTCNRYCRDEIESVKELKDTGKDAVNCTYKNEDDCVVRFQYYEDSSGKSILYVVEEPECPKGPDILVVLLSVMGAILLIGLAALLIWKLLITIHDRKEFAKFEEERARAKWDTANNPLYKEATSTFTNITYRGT

Kd [1]: 1 nM
B1: human osteopontin (purified hOPN) (ligand)
chain: not shown
modifications: radioiodinated (125I, Chloramine-T method) when used as tracer; labelled residues not stated; the natural protein is described as a glycosylated phosphoprotein

binding result [2]: binds
Binder: GRGDS (also called GRGDS peptide) [Gly-Arg-Gly-Asp-Ser (GRGDS) oligopeptide]
